Assay results reported in the RNAGym collection of RNA variant scans (doi:10.1073/pnas.2313332121).
Fewer inactive variants are shown than the library holds.

B1: TPR 5TU (parent)
chain: GGAUCUUCUCGAUCUAACAAAAAAGACAAAUCUGCCACAAAGCUUGAGAGCAUCUUCGGAUGCAGAGGCGGCAGCCUUCGGUGGCGCGAUAGCGCCAACGUUCUCAACUAUGACACGCAAAACGCGUGCUCCGUUGAAUGGAGUUUAUCAUG

Variants of: B1
Experiment: polymerase ribozyme fitness, log enrichment relative to wild type (log ratio); higher = more active; in vitro selection for triplet polymerase activity
Method in brief: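 Streptavidin-bead capture of gel-excised extended constructs, followed by RT-PCR, closed a single triplicate in vitro selection round. That round began by annealing PCR-built, transcribed mutant libraries of each subunit of a heterodimeric triplet polymerase ribozyme with a biotinylated primer, the partner subunit and triplets, then incubating them frozen at −7 °C. After Illumina sequencing of inputs and outputs, genotypes needed ≥10 input reads and ≥1 read per output. Fitness is the base-2 logarithm of genotype enrichment over wild-type enrichment, using inverse-variance-weighted replicate averages.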

Variant	polymerase ribozyme fitness (log ratio)
A16G C149G	-3.97
A17C A21U A29U U53G A73G G94A	≤ -4.2
A17C C36U G68C G86A U139A	≤ -4.2
A16G C32U C72A C76U C85G A107U	≤ -4.2
A16G U134G	-3.44
A16G U134A	-3.15
A17C A89U	0.471
A17G A21G C57U C96A A137U A138G	≤ -4.2
A16U G50A A60C G83C G141C	≤ -4.2
A16U A19U A26C A37C G74C A89C G94A C108U A113G G136A	≤ -4.2
A16G U55A G83A G117U	-1.7
A17C A47C C95U C116U	-0.195
A16U U44G G48A C87U U102G C131U C132G	≤ -4.2
A17G A21U C51U U53A C79U G94A A115G	≤ -4.2
A17G A20C A30G G46A G59U G67C G68U G70U C96G	≤ -4.2
A16U C35U G92U C116G	-3.21
A16U C38A C75A C114U G143U	≤ -4.2
A17C A23U U104C	≤ -4.2
A16G A20U C32A U45A A47C G83C C93G G140A	≤ -4.2
A16U A17C G50A U56A C87U G88A G117U	≤ -4.2
A17G A19U C93U U102C G136A U148A	≤ -4.2
A16U A21G C85G C93A C116A A150U	≤ -4.2
A17C A19C A73G C96U C123U C125G	-3.23
A16U G86A A91U A106G C108U C129A	≤ -4.2

Variant	polymerase ribozyme fitness (log ratio)
A17C G48C C93G	-3.01
A17G A29C A107U U135G	≤ -4.2
A16U U56G G84A U102A G141U	-3.81
A17G A37U A47U C85U	-1.62
A17C G84C A142G	-3.21
A16G G94A U104A	-0.709
A16U A17U G48U U104G G124A C131G	-4.15
A17C A47C G94C	-0.464
A17C C54A	-1.11
A16U C51U C95U	-2.98
A16U A47C	-2.04
A17G A39C A40C A73G G94C U134G	≤ -4.2
A16G G94A G143C	-3.22
A16U A52G U104G U134G	≤ -4.2
A17G A21C U44A A91C C108U	≤ -4.2
A17C U61G C85U G126A G140U U151A G152C	≤ -4.2
A17C U82A C85A C93U	≤ -4.2
A17C G74C C87U G92C C105G G136U	≤ -4.2
A17C A26U A49C	≤ -4.2
A16U U55G C87U	-2.67
A16U C69A U145G	-3.75
A17G A19U U53A U56G A60U C69G U111G A142G	≤ -4.2
A16G U31G A49U	≤ -4.2
A16U C85G	-3.36

Variant	polymerase ribozyme fitness (log ratio)
A16U C85A	-2.74
A17C U53G U55A A121G	-1.71
A16U A52G A64U U77A C87A G143C	≤ -4.2
A16U A17U A26U C27G A49U C54A A66U C85A C116G	-3.74
A16U A29U U77G C85G C116U C125A U134C	≤ -4.2
A16U U56A G83A U109C U111G	≤ -4.2
A16U G143C	-3.63
A17C G50A G84U G143C U144G	≤ -4.2
A16G A23G A37U G86A U135A	≤ -4.2
A16U G58U C69U U78G G80C C96A G141U	≤ -4.2
A16G G42C C54G G70A C87A C99U A113C G141U U151C	≤ -4.2
A16U A29C C35U A41C G86A A98U C114U G141U U145G	≤ -4.2
A16U A120U	-2
A16U A120G	-2.64
A16G U45A C72U C93G U151A	≤ -4.2
A16G A30U U90G G152U	≤ -4.2
A16U A19G U31A C38U G42C U44G G59U C96G	≤ -4.2
A16G A30U C38A C96G A97C C105G A107U A110U	≤ -4.2
A16U G74A G84U U90C C118U A121U	≤ -4.2
A16U C57A C99G U104C	-3.73
A17C C36U A47G C54A C85A C118A U127G U134C U151A	≤ -4.2
A16U U31C C38U C114U	-3.95
A16U U55G C85G C103U A121U	-4.13
A16U C32A C35G A47C G58C G68A G70U C96G G126C	≤ -4.2

Variant	polymerase ribozyme fitness (log ratio)
A16U C18A A40G G74A G80C G83U G86A A97U	≤ -4.2
A16U U53A C75A C93A C103G U130A	≤ -4.2
A16G A49U C131U	-1.5
A16G A39C	-2.62
A17G A23U A26U C116G A138C A142C	≤ -4.2
A16U C87A G100A	≤ -4.2
A16G U53A U146G	-2.19
A17C U44G G88A C95G C103U G141C	≤ -4.2
A17C U55A U56A C85G A115G	-3.1
A17G A22G U82C C99A	-2.88
A16G A29U U45A C54G C87G C125G	≤ -4.2
A17C G81U C85A C95U C105G A115U	-3.03
A16U C79G	≤ -4.2
A16U C27U C57A C93A A107C C125A U146G	≤ -4.2
A16U U31A C38G A41C G62C A120U A142G A147U	≤ -4.2
A17C A23U G59U G84A U90C U151A	≤ -4.2
A17C A40G G50C C57U C108U G133C	≤ -4.2
A16U C63U	-1.7
A17G A39G U56A C85G A115G	-3.92
A17C G133A U144A A147C	-3.99
A16G A91U	≤ -4.2
A16U C43G G84C	≤ -4.2
A16U C116A	-0.257
A16G A41G U53G A73U G88A C125U G133U	≤ -4.2

Variant	polymerase ribozyme fitness (log ratio)
A16G G25U A150G	-3.86
A16U C129A	-3.81
A17C U55A G59A A60G C96A G143U	-3.41
A16G C116A	0.283
A17G A20C A24C U44C A66U C103U U134G	≤ -4.2
A16G U33G G81A C87G G100A	≤ -4.2
A16G U148C	-2.77
A16U A29U U45G U61G C93A	≤ -4.2
A16G A22G C27A A49C C57U G59C C85U C118A C129U	≤ -4.2
A16U A47U U55A C87U	-2.97
A16G C27G U44A C79G	≤ -4.2
A16U U61G G81A	-1.91
A16G G81A G83A C93U G128C U134G	≤ -4.2
A16U A106G	-1.8
A16G A21C G48C C54A G58U C93U A122G	-3.83
A17C C99A	-0.000978
A16G U33G U90G C114U G117U A138C A150G	≤ -4.2
A16G C69U C85U C131G A142U	≤ -4.2
A16G A24U A52C C85A C95U	≤ -4.2
A16U A20C A91U G141U	≤ -4.2
A17G A23G G48C A91U U104A	≤ -4.2
A17C C32U	-1.61
A16G C35U C116G	-1.98
A17C A30G C79G C87G C96G C105A	≤ -4.2

Variant	polymerase ribozyme fitness (log ratio)
A16G A20U U33G C85A G94A A150C	≤ -4.2
A16U A24U C27U A39U U55A C76A	≤ -4.2
A17G A47C C87A G88C A91U U111A	≤ -4.2
A16U C85U C87U A115G	-3.52
A16G C35U	-1.36
A16U A106G U144A	-2.13
A17C C38A U55G G86U C116G A122G	-2.93
A16U G50C U56A G84C A97U U101A A113C A119G G133U A137U	≤ -4.2
A16G C38U G50C U55A C57U C85G A120G A137U G143C	≤ -4.2
A16U A23G U148A	≤ -4.2
A17G A21G A29G G81A C93G G112U C118A U135A	≤ -4.2
A16G A26U C85A C105G C114U G141C U151C	≤ -4.2
A17G A20U C57G G84U C93A C96G A119U G141A	≤ -4.2
A16G C43A C57G G59U G70U G88U C99U A107G	≤ -4.2
A16U C27G A28U U31C G74U U82A	≤ -4.2
A16G C38A U56G C96U C103U C149G	≤ -4.2
A16U G46U G59C C76G G84U C85U U102C A138U	≤ -4.2
A16G A20U C99U U102G	≤ -4.2
A16U C54A G81A C85U C114U G136U G143U C149G	≤ -4.2
A16U C27G A30U C35G G83A C103U	≤ -4.2
A17G A49U G83U	-3.31
A16U U139G G140U	≤ -4.2
A16G C27A C35G C43A U56G G58C C93U G117C A119C A121U G136A	≤ -4.2
A16G A28G G59A G80A G83C C87U	≤ -4.2

Variant	polymerase ribozyme fitness (log ratio)
A16U G83A A106G A107C C118U C123G C129G A150G	≤ -4.2
A16G A22U A47C C95A C96U	-3.89
A16U G42A U53A C85U C96G A120C	≤ -4.2
A16U A39G A89C C95U G152C	≤ -4.2
A16U A19U C103G	-4.18
A16U U53C A73G G94C A150C	≤ -4.2
A16G C18U A30U C35U U55A G71C C93U A97C C116A G141U	≤ -4.2
A16G G48U G133U	-3.99
A17G A22C U61A G84U C96U U109A U111A G141A	≤ -4.2
A16G G83U A107U A142C	≤ -4.2
A16G U53G G84U C96G	-3.88
A17G A49C C87G C123G G141A	≤ -4.2
A16U A37U C76G U82G A89G A91G G143U	≤ -4.2
A16G A26U U31C U82A A106U C131A U139G G141C	≤ -4.2
A16G U31A A39U C132U G136A	-3.4
A17C C18A C57A C95U C99G A113G G133A G152U	-4.06
A16U G83C C99A	-3.97
A16G C57A G86C G124U	-3.24
A16G G83U G92A C96U	≤ -4.2
A17C A19U G58A A97G U102G A119G	-3.63
A17C A28U G46U A98U A107G A113G G133U	≤ -4.2
A17C A91U	≤ -4.2
A17C A40G C54A G83A G124A	≤ -4.2
